Bridge positions count the residues as written; N and C are the ends. Square brackets hold non-standard residues; d marks the D form. Ends that are not written are not given here. Bip = N[C@@H](Cc1ccc(-c2ccccc2)cc1)C(=O)O; 1Nal = N[C@@H](Cc1cccc2ccccc12)C(=O)O; 2Nal = N[C@@H](Cc1ccc2ccccc2c1)C(=O)O; d2Nal = N[C@H](Cc1ccc2ccccc2c1)C(=O)O; hArg = N=C(N)NCCCC[C@H](N)C(=O)O; Nle = CCCC[C@H](N)C(=O)O; Ahx = NCCCCCC(=O)O; GABA = NCCCC(=O)O; βAla = NCCC(=O)O
B1: Ac-Nle-c(Cys-D-Ala-His-D-2-Nal-Arg-1-Nal-Cys)-NH2 (peptide)
peptide: Ac-[Nle]C[dA]H[d2Nal]R[1Nal]C-NH2
modifications: disulfide 2-8
SMILES: CCCC[C@H](NC(C)=O)C(=O)N[C@H]1CSSC[C@@H](C(N)=O)NC(=O)[C@H](Cc2cccc3ccccc23)NC(=O)[C@H](CCCNC(=N)N)NC(=O)[C@@H](Cc2ccc3ccccc3c2)NC(=O)[C@H](Cc2c[nH]cn2)NC(=O)[C@@H](C)NC1=O
B2: Ac-Nle-c(Cys-D-Ala-His-D-Phe-Arg-Trp-D-Ala-Cys)-NH2 (peptide)
peptide: Ac-[Nle]C[dA]H[dF]RW[dA]C-NH2
modifications: disulfide 2-9
SMILES: CCCC[C@H](NC(C)=O)C(=O)N[C@H]1CSSC[C@@H](C(N)=O)NC(=O)[C@@H](C)NC(=O)[C@H](Cc2c[nH]c3ccccc23)NC(=O)[C@H](CCCNC(=N)N)NC(=O)[C@@H](Cc2ccccc2)NC(=O)[C@H](Cc2c[nH]cn2)NC(=O)[C@@H](C)NC1=O
B3: D-Phe-c(Cys-His-D-Phe-Arg-Trp-β-Ala-D-Cys)-Thr-NH2 (peptide)
peptide: [dF]CH[dF]RW[βAla][dC]T-NH2
modifications: disulfide 2-8; N-terminus assumed
SMILES: C[C@@H](O)[C@H](NC(=O)[C@H]1CSSC[C@H](NC(=O)[C@H](N)Cc2ccccc2)C(=O)N[C@@H](Cc2c[nH]cn2)C(=O)N[C@H](Cc2ccccc2)C(=O)N[C@@H](CCCNC(=N)N)C(=O)N[C@@H](Cc2c[nH]c3ccccc23)C(=O)NCCC(=O)N1)C(N)=O
B4: D-Phe-c(Cys-His-D-Phe-hArg-Bip-β-Ala-D-Cys)-Thr-NH2 (peptide)
peptide: [dF]CH[dF][hArg][Bip][βAla][dC]T-NH2
modifications: disulfide 2-8; N-terminus assumed
SMILES: C[C@@H](O)[C@H](NC(=O)[C@H]1CSSC[C@H](NC(=O)[C@H](N)Cc2ccccc2)C(=O)N[C@@H](Cc2c[nH]cn2)C(=O)N[C@H](Cc2ccccc2)C(=O)N[C@@H](CCCCNC(=N)N)C(=O)N[C@@H](Cc2ccc(-c3ccccc3)cc2)C(=O)NCCC(=O)N1)C(N)=O
B5: Ac-Nle-c(Cys-D-Ala-His-D-2-Nal-Arg-2-Nal-Cys)-NH2 (peptide)
peptide: Ac-[Nle]C[dA]H[d2Nal]R[2Nal]C-NH2
modifications: disulfide 2-8
SMILES: CCCC[C@H](NC(C)=O)C(=O)N[C@H]1CSSC[C@@H](C(N)=O)NC(=O)[C@H](Cc2ccc3ccccc3c2)NC(=O)[C@H](CCCNC(=N)N)NC(=O)[C@@H](Cc2ccc3ccccc3c2)NC(=O)[C@H](Cc2c[nH]cn2)NC(=O)[C@@H](C)NC1=O

target: hMC1-R (human) (UniProt Q01726); assay: cell-based or functional assay
Sequence (Q01726 whole entry): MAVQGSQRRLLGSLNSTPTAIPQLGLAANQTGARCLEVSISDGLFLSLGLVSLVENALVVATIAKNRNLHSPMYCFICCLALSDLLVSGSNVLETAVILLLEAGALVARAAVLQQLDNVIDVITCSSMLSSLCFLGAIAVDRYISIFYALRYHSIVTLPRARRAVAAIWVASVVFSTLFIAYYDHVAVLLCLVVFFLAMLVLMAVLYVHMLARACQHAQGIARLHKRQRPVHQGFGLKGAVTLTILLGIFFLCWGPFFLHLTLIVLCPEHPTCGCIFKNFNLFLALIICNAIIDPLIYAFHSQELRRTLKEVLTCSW

cAMP EC50 [nM]	Binder
383	B1
0.231	Ac-[Nle]CH[d2Nal]RW[GABA]C-NH2 (disulfide 2-8) [Ac-Nle-c(Cys-His-D-2-Nal-Arg-Trp-Gaba-Cys)-NH2]
0.581	Ac-[Nle]CH[d2Nal]RW[Ahx]C-NH2 (disulfide 2-8) [Ac-Nle-c(Cys-His-D-2-Nal-Arg-Trp-Ahx-Cys)-NH2]

target: hMC3-R (human) (UniProt P41968); assay: cell-based or functional assay
Sequence (P41968 whole entry): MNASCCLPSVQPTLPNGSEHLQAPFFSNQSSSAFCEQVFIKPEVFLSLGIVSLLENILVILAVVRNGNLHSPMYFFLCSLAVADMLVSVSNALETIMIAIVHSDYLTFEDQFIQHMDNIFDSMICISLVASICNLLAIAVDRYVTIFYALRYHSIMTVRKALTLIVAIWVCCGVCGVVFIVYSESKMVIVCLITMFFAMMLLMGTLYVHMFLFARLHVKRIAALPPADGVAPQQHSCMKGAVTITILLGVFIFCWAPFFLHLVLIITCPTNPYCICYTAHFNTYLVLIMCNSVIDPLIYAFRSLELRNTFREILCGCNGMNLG

cAMP Kb [nM]	Binder
61.5	B1
18.4	Ac-[Nle]CH[d2Nal]RW[GABA]C-NH2 (disulfide 2-8) [Ac-Nle-c(Cys-His-D-2-Nal-Arg-Trp-Gaba-Cys)-NH2]
10.8	Ac-[Nle]CH[d2Nal]RW[Ahx]C-NH2 (disulfide 2-8) [Ac-Nle-c(Cys-His-D-2-Nal-Arg-Trp-Ahx-Cys)-NH2]

target: hMC4-R (human) (UniProt P32245); assay: cell-based or functional assay
Sequence (P32245 whole entry): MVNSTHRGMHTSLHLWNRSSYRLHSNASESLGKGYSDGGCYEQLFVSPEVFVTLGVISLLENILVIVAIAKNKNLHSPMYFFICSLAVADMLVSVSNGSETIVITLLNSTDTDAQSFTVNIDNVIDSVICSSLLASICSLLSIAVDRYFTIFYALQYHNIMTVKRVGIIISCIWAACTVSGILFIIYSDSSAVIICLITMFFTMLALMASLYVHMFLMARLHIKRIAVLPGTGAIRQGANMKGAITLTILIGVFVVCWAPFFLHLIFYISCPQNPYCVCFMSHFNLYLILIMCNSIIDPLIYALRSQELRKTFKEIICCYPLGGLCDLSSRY

cAMP Kb [nM]	Binder
53.6	B1
0.782	Ac-[Nle]CH[d2Nal]RW[GABA]C-NH2 (disulfide 2-8) [Ac-Nle-c(Cys-His-D-2-Nal-Arg-Trp-Gaba-Cys)-NH2]
0.967	Ac-[Nle]CH[d2Nal]RW[Ahx]C-NH2 (disulfide 2-8) [Ac-Nle-c(Cys-His-D-2-Nal-Arg-Trp-Ahx-Cys)-NH2]

target: hMC5-R (human) (UniProt P33032); assay: cell-based or functional assay
Sequence (P33032 whole entry): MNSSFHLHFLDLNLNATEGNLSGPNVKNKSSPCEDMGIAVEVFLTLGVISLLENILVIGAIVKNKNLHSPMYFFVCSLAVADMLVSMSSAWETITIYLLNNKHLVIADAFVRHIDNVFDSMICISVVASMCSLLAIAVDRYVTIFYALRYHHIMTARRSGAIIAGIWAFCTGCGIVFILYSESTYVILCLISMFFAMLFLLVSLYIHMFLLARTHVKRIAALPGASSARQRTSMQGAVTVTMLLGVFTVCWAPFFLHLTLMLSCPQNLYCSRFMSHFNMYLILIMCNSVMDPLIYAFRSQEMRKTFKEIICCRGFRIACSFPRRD

cAMP EC50 [nM]	Binder
2840	B1
0.153	Ac-[Nle]CH[d2Nal]RW[GABA]C-NH2 (disulfide 2-8) [Ac-Nle-c(Cys-His-D-2-Nal-Arg-Trp-Gaba-Cys)-NH2]
0.126	Ac-[Nle]CH[d2Nal]RW[Ahx]C-NH2 (disulfide 2-8) [Ac-Nle-c(Cys-His-D-2-Nal-Arg-Trp-Ahx-Cys)-NH2]

target: hMC1-R (human) (UniProt Q01726); assay: ratio Ki hMC1-R / Ki hMC4-R, same assay

Ki hMC1-R/MC4-R	Binder
0	[dF]CH[d(Et)Tyr][hArg][Bip][βAla][dC]T-NH2 (disulfide 2-8) [D-Phe-c(Cys-His-D-(Et)Tyr-hArg-Bip-β-Ala-D-Cys)-Thr-NH2]
0.08	B2
37.1	B1
0.08	B3
0	[dF]CH[d(Et)Tyr]RW[βAla][dC]T-NH2 (disulfide 2-8) [D-Phe-c(Cys-His-D-(Et)Tyr-Arg-Trp-β-Ala-D-Cys)-Thr-NH2]
0.01	B4
1.05	Ac-[Nle]CH[d2Nal]RW[GABA]C-NH2 (disulfide 2-8) [Ac-Nle-c(Cys-His-D-2-Nal-Arg-Trp-Gaba-Cys)-NH2]
0.33	Ac-[Nle]CH[d2Nal]RW[Ahx]C-NH2 (disulfide 2-8) [Ac-Nle-c(Cys-His-D-2-Nal-Arg-Trp-Ahx-Cys)-NH2]
12.8	B5

target: hMC1-R (human) (UniProt Q01726); assay: competition with [125I]-NDP-α-MSH, CHO-K1 membranes

Ki [nM]	Binder
0.128	[dF]CH[d(Et)Tyr][hArg][Bip][βAla][dC]T-NH2 (disulfide 2-8) [D-Phe-c(Cys-His-D-(Et)Tyr-hArg-Bip-β-Ala-D-Cys)-Thr-NH2]
3.93	B2
114	B1
0.207	B3
0.05	[dF]CH[d(Et)Tyr]RW[βAla][dC]T-NH2 (disulfide 2-8) [D-Phe-c(Cys-His-D-(Et)Tyr-Arg-Trp-β-Ala-D-Cys)-Thr-NH2]
1.68	B4
0.393	Ac-[Nle]CH[d2Nal]RW[GABA]C-NH2 (disulfide 2-8) [Ac-Nle-c(Cys-His-D-2-Nal-Arg-Trp-Gaba-Cys)-NH2]
0.333	Ac-[Nle]CH[d2Nal]RW[Ahx]C-NH2 (disulfide 2-8) [Ac-Nle-c(Cys-His-D-2-Nal-Arg-Trp-Ahx-Cys)-NH2]
32.5	B5

target: hMC3-R (human) (UniProt P41968); assay: as above

Ki [nM]	Binder
85.6	[dF]CH[d(Et)Tyr][hArg][Bip][βAla][dC]T-NH2 (disulfide 2-8) [D-Phe-c(Cys-His-D-(Et)Tyr-hArg-Bip-β-Ala-D-Cys)-Thr-NH2]
876	B2
63.9	B1
43.2	B3
9.3	[dF]CH[d(Et)Tyr]RW[βAla][dC]T-NH2 (disulfide 2-8) [D-Phe-c(Cys-His-D-(Et)Tyr-Arg-Trp-β-Ala-D-Cys)-Thr-NH2]
1260	B4
1.86	Ac-[Nle]CH[d2Nal]RW[GABA]C-NH2 (disulfide 2-8) [Ac-Nle-c(Cys-His-D-2-Nal-Arg-Trp-Gaba-Cys)-NH2]
2.91	Ac-[Nle]CH[d2Nal]RW[Ahx]C-NH2 (disulfide 2-8) [Ac-Nle-c(Cys-His-D-2-Nal-Arg-Trp-Ahx-Cys)-NH2]
5.85	B5

target: hMC4-R (human) (UniProt P32245); assay: as above

Ki [nM]	Binder
36.9	[dF]CH[d(Et)Tyr][hArg][Bip][βAla][dC]T-NH2 (disulfide 2-8) [D-Phe-c(Cys-His-D-(Et)Tyr-hArg-Bip-β-Ala-D-Cys)-Thr-NH2]
48	B2
3.07	B1
2.58	B3
1.1	[dF]CH[d(Et)Tyr]RW[βAla][dC]T-NH2 (disulfide 2-8) [D-Phe-c(Cys-His-D-(Et)Tyr-Arg-Trp-β-Ala-D-Cys)-Thr-NH2]
172	B4
0.375	Ac-[Nle]CH[d2Nal]RW[GABA]C-NH2 (disulfide 2-8) [Ac-Nle-c(Cys-His-D-2-Nal-Arg-Trp-Gaba-Cys)-NH2]
0.998	Ac-[Nle]CH[d2Nal]RW[Ahx]C-NH2 (disulfide 2-8) [Ac-Nle-c(Cys-His-D-2-Nal-Arg-Trp-Ahx-Cys)-NH2]
2.53	B5

target: hMC5-R (human) (UniProt P33032); assay: as above

Ki [nM]	Binder
38	[dF]CH[d(Et)Tyr][hArg][Bip][βAla][dC]T-NH2 (disulfide 2-8) [D-Phe-c(Cys-His-D-(Et)Tyr-hArg-Bip-β-Ala-D-Cys)-Thr-NH2]
4940	B2
1660	B1
344	B3
2.9	[dF]CH[d(Et)Tyr]RW[βAla][dC]T-NH2 (disulfide 2-8) [D-Phe-c(Cys-His-D-(Et)Tyr-Arg-Trp-β-Ala-D-Cys)-Thr-NH2]
1220	B4
1.11	Ac-[Nle]CH[d2Nal]RW[GABA]C-NH2 (disulfide 2-8) [Ac-Nle-c(Cys-His-D-2-Nal-Arg-Trp-Gaba-Cys)-NH2]
0.366	Ac-[Nle]CH[d2Nal]RW[Ahx]C-NH2 (disulfide 2-8) [Ac-Nle-c(Cys-His-D-2-Nal-Arg-Trp-Ahx-Cys)-NH2]
94.6	B5
